Entries after “also recorded” stand apart in the source; their conditions may differ. Residues, ends and D or L forms follow the SMILES beside them.
Columns and labels:
[1] = Liquid-liquid phase separation by optical microscopy; assay type: physicochemical; settings: for ability to undergo LLPS / phase separation: various pH and salt (NaCl) concentration
Description: In Example 2 below, phase separation behavior of protein variants and peptides was studied using a Zeiss Axio Scope A1 microscope (Carl Zeiss Pte Ltd., Germany) in the reflection mode, with differential interference contrast (DIC) filters. Images were taken with an AxioCam MRc 5 camera under the control of AxioVision software.
Liquid-liquid phase separation properties of protein variants and peptides at different buffer conditions were assessed using the method described in (Tan et al, Nat. Chem. Biol. 11, 488-495). Briefly, protein/peptide stock solution (10 mg/mL in 10 mM acetic acid, pH 3.3) was added to a buffer solution in a volume ratio 1:5 (protein/peptide stock:buffer). The mixture was then pipetted onto a microscopy glass slide and imaged using the optical microscope.

[2] = Dynamic light scattering of GY-23 peptide; assay type: physicochemical
Description: FIGS. 30A-30C. SAXS and DLS of GY-23 peptide. (A) SAXS experimental curves of the peptide before and after coacervation. After LLPS, the dilute and coacervate-rich phases were measured following centrifugation. The q-3 power-law region of the scattering data is highlighted, with the black line a guide for the eye. The calculated fit for the peptide assemblies from the IFT method is also presented as a continuous red line. (B) Corresponding p(r) profile calculated from the SAXS data in (A) using Eq. 1 (materials and methods). (C) Hydrodynamic diameter (DH) measured by DLS of GY-23 in acetic acid (pH 3.3) and after coacervation (pH 7.0).
FIGS. 34A-34B Correlation functions of the DLS measurements of GY-23 peptide before and after coacervation (FIG. 33C) showing the intensity correlation function, C(τ) vs. the correlation time, τ. (A) Sample before coacervation (10 mM in acetic acid, pH 3.3). The curve with a single decay at short correlation times represents a monomodal distribution of rather small particles in the nanometer range. (B) Sample after LLPS (coacervation buffer, pH 7.0).

[3] = Circular dichroism spectroscopy of insulin; assay type: physicochemical
Excerpt: Circular dichroism (CD) spectra was collected using a quartz cuvette of 0.2/0.5 mm optical pathlength. Data collection was done on AVIV 420 Circular Dichroism spectrometer with the following parameters: average of three scans per experiment between wavelength range from 190 to 250 nm, 1.0 nm wavelength steps with 1.00 nm bandwidth and 0.1 s averaging time. Each experiment was repeated for 3 times and averaged to obtain the final spectrum. The final spectrum was then smoothed and plotted using originPro9.1.

[4] = Encapsulation of Dox and MNPs by coacervates; assay type: physicochemical; settings: DgHBP-2-peptide coacervates
Description: Dox (Final concentration: 0.04 mg mL^−1) and MNPs (Final concentration: 0.008% v/v) were first added to phosphate buffer (pH 9.5 0.1M) to their final concentrations. DgHBP-2 peptide stock solution (10 mg mL^−1) was successively added to the buffer/drug mixture in a 1:9 ratio to trigger encapsulation and coacervation. Gentle pipetting was then done to mix the final mixture.

[5] = cited from earlier work
NIH3T3 mouse fibroblasts = assay: MTT assay; assay type: cell-based
Description: NIH3T3 mouse fibroblasts were used to estimate the cytotoxicity of DgHBP-2 peptide and coacervates. The fibroblasts were cultivated using Dulbecco's modified eagle medium supplemented with 10% of fetal bovine serum, 100 units/mL of penicillin and 100 μg/mL of streptomycin in a 37° C. incubator with 5% CO2. 100 μL of cells with a cell density of 1×10^4 cells/mL were seeded onto a 96-well plate (Thermo Fisher Scientific). After 24 hours, the cell culture media was substituted with 100 μL of fresh media containing different concentration of peptide or insulin-loaded coacervates. After another 24 hours, 10 μL of MTT solution (concentration: 5 mg/mL) was added into each well. Cell culture media and the excess MTT was then removed after 4 hours of incubation. 100 μL of DMSO was subsequently added into each well to dissolve the formazan crystals. The dissolved crystals were then measured at 570 nm on a 96-well microplate reader (Infinity M200, Tecan). Relative cell viability is calculated as:
[formula] where At, Ac, and Ab represent absorbance values of wells containing tested cells, control cells and DMSO, respectively. In Vitro Release Assay (Timepoint Assay)

With “GHGLY GAGFA GHGLH GFA GHGLY (GHGLYGAGFAGHGLHGFAGHGLY) [GY-23]” the “morphology of the separated phase” value ([1]; optical micrographs after LLPS) was “coacervate micro-droplets suspended in solution as well as a dense hydrogel-like structure; also recorded: micro-droplets as well as hydrogel-like condensed coacervates”, the “ability to undergo LLPS / phase separation” value [1] was “phase-separated” and the “hydrodynamic diameter (DH)” value ([2]; acetic acid (pH 3.3), before LLPS) was “ca. 8 nm”. For the same molecule, the “hydrodynamic diameter (DH)” value ([2]; pH 7.0, initiation of LLPS) was “around 50 nm”.

With insulin [reference compound] the “CD: secondary structure” value ([3]; pH 5.5 to 7.5) was “not disrupted”.

In the case of COc1cccc2c1C(=O)c1c(O)c3c(c(O)c1C2=O)C[C@@](O)(C(=O)CO)C[C@@H]3O[C@H]1C[C@H](N)[C@H](O)[C@H](C)O1 [Dox, Doxorubicin], the “encapsulation efficiency of Dox” value [4] is listed as roughly 40%, the “unencapsulated Dox” value [4] is listed as 60% and the pKa [5] is listed as roughly 8.46.

In the case of “released insulin: insulin released from dissociated coacervates”, the “CD: characteristic minima of α-helices at 208 and 222 nm” value ([3]; after coacervation and release) is reported as “still visible”.

For CC(C)C[C@H](NC(=O)CNC(=O)[C@H](Cc1c[nH]cn1)NC(=O)CNC(=O)[C@H](Cc1ccc(O)cc1)NC(=O)[C@@H]1CCCN1C(=O)CNC(=O)[C@H](Cc1c[nH]cn1)NC(=O)CNC(=O)[C@H](Cc1ccc(O)cc1)NC(=O)[C@@H]1CCCN1C(=O)CNC(=O)[C@H](Cc1c[nH]cn1)NC(=O)CNC(=O)[C@H](Cc1ccc(O)cc1)NC(=O)[C@@H](NC(=O)CNC(=O)[C@H](Cc1c[nH]cn1)NC(=O)CNC(=O)[C@H](Cc1ccc(O)cc1)NC(=O)[C@@H](NC(=O)CNC(=O)[C@H](Cc1c[nH]cn1)NC(=O)CN)C(C)C)C(C)C)C(=O)N[C@@H](Cc1ccc(O)cc1)C(=O)N[C@@H](Cc1c[nH]c2ccccc12)C(=O)O [DgHBP-2 peptide, GHGVYGHGVYGHGPYGHGPYGHGLYW] (H-GHGVYGHGVYGHGPYGHGPYGHGLYW-OH), the cytotoxicity (NIH3T3 mouse fibroblasts) was “negligible”.

B1: C-terminal (A82-R172): DgHBP-2 C-terminal trypsin fragment containing the whole repetitive region (protein)
chain: AAQGANAVHNDAAQSHSALAAANTFGHGHAPYAAYGHGVYGHGPYGHGPYGHGLYGHGLYGHGPYGHGLYGHGAFGHGLNAYAPLVGHGLR
modifications: C-terminal fargment of HBP-2
notes: DgHBP-2 C-terminal trypsin fragment containing the whole repetitive region
For B1, the “ability to undergo LLPS / phase separation” value [1] was “phase-separated into coacervates”.

B2: N-terminal (M1-R81) fragment: DgHBP-2 N-terminal trypsin fragment lacking the modular repeats (protein)
chain: MQFFGAGPFNTAHHSAVSDAAAAHHDAAGEYAQNAATGLLDTHHNENHDMTHDLANGYGLHEHDEQHHGLADGLHQEYAAR
modifications: N-terminal fragment of HBP-2
notes: DgHBP-2 N-terminal trypsin fragment lacking the modular repeats
In the case of B2, the “ability to undergo LLPS / phase separation” value [1] is reported as “only the C-terminal fragment phase-separated”.
